Reference: article PMC9482650, “Quantitative fragmentomics allow affinity mapping of interactomes” (Nature Communications, 2022)

T1: APBA1_1, Q02410
T1 sequence (Q02410 651-752, limits assumed, looked up): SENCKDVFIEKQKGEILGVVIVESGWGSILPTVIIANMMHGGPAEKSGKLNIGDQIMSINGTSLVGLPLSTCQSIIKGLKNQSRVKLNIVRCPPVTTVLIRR

T2: APBA2_2, Q99767
T2 sequence (Q99767 654-744, limits assumed, looked up): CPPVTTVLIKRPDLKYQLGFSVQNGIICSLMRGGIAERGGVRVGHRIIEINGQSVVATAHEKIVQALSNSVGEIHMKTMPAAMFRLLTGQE

T3: DFNB31_2, Q9P202
T3 sequence (Q9P202 274-371, limits assumed, looked up): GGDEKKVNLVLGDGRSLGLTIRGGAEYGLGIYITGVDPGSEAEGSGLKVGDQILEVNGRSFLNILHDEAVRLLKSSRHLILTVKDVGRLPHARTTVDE

T4: DFNB31_3, Q9P202
T4 sequence (Q9P202 811-907, limits assumed, looked up): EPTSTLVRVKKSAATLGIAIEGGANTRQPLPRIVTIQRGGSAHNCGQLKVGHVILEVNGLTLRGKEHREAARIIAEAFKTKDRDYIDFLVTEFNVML

T5: GRIP1_3, Q9Y3R0
T5 sequence (Q9Y3R0 247-346, limits assumed, looked up): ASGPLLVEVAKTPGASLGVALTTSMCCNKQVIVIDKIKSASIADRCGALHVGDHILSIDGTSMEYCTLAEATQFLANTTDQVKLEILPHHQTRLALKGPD

T6: GRIP1_7, Q9Y3R0
T6 sequence (Q9Y3R0 999-1096, limits assumed, looked up): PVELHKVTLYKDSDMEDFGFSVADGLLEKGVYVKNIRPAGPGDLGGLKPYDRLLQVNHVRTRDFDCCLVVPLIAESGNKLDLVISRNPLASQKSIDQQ

T7: MPDZ_12, O75970
T7 sequence (O75970 1857-1958, limits assumed, looked up): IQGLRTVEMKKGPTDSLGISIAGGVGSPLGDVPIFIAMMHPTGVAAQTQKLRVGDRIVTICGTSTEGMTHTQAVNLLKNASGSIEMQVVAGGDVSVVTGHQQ

T8: MPP6, Q9NZW5
T8 sequence (Q9NZW5 125-219, limits assumed, looked up): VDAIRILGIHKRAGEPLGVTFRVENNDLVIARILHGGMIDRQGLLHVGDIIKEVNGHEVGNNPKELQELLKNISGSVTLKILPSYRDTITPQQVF

T9: PDZD7_3, Q9H5P4
T9 sequence (Q9H5P4 857-944, limits assumed, looked up): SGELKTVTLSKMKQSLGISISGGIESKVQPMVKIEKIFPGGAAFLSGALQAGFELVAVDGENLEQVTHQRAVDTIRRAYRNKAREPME

T10: PTPN13_1, Q12923
T10 sequence (Q12923 1088-1188, limits assumed, looked up): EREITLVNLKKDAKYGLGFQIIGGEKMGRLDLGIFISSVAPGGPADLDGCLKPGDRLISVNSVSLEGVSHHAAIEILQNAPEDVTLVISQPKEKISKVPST

T11: SHANK1, Q9Y566
T11 sequence (Q9Y566 658-767, limits assumed, looked up): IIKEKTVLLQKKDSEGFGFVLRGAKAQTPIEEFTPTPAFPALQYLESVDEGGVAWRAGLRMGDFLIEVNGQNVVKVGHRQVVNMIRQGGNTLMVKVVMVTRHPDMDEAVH

T12: SYNJ2BP, P57105
T12 sequence (P57105 8-110, limits assumed, looked up): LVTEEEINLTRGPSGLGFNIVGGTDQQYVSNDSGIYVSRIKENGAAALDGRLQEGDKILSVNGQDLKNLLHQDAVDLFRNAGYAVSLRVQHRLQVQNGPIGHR


Tests used:
Assay in all cases: holdup assay
Set-up in all cases: key: below the threshold = too weak to quantify, mostly under pKd 3.1 to 4
Conditions in all cases: plain residues with an end cap or a label only (N-terminal biotin on a linker: ado-ado)
APBA1_1, Q02410 = molecular target: T1, APBA1_1, Q02410
APBA2_2, Q99767 = molecular target: T2, APBA2_2, Q99767
CASK, O14936 = molecular target: CASK, O14936
DFNB31_2, Q9P202 = molecular target: T3, DFNB31_2, Q9P202
DFNB31_3, Q9P202 = molecular target: T4, DFNB31_3, Q9P202
DLG4_2, P78352 = molecular target: DLG4_2, P78352
DLG4_3, P78352 = molecular target: DLG4_3, P78352
FRMPD2_2, Q68DX3 = molecular target: FRMPD2_2, Q68DX3
GOPC, Q9HD26 = molecular target: GOPC, Q9HD26
GRID2IP_1, A4D2P6 = molecular target: GRID2IP_1, A4D2P6
GRIP1_3, Q9Y3R0 = molecular target: T5, GRIP1_3, Q9Y3R0
GRIP1_7, Q9Y3R0 = molecular target: T6, GRIP1_7, Q9Y3R0
GRIP2_3, Q9C0E4 = molecular target: GRIP2_3, Q9C0E4
Inadl_8, Q8NI35 = molecular target: Inadl_8, Q8NI35
MAGI1_1, Q96QZ7 = molecular target: MAGI1_1, Q96QZ7
MAGI1_2, Q96QZ7 = molecular target: MAGI1_2, Q96QZ7
MAST1, Q9Y2H9 = molecular target: MAST1, Q9Y2H9
MPDZ_12, O75970 = molecular target: T7, MPDZ_12, O75970
MPP6, Q9NZW5 = molecular target: T8, MPP6, Q9NZW5
NHERF2_2, Q15599 = molecular target: NHERF2_2, Q15599
PDZD7_3, Q9H5P4 = molecular target: T9, PDZD7_3, Q9H5P4
PDZRN4_1, Q6ZMN7 = molecular target: PDZRN4_1, Q6ZMN7
PTPN13_1, Q12923 = molecular target: T10, PTPN13_1, Q12923
SHANK1, Q9Y566 = molecular target: T11, SHANK1, Q9Y566
SYNJ2BP, P57105 = molecular target: T12, SYNJ2BP, P57105
TJP1_3, Q07157 = molecular target: TJP1_3, Q07157
Sequence of TJP1_3, Q07157 (Q07157 416-512): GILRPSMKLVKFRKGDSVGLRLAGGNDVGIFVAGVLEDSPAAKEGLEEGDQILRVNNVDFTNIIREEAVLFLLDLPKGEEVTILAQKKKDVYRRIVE

Sequence of MAGI1_2, Q96QZ7 (Q96QZ7 456-580): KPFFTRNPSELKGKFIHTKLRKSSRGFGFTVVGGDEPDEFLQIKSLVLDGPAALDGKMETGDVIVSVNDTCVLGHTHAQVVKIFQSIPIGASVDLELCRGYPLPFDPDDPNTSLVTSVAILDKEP
Sequence of CASK, O14936 (O14936 487-570): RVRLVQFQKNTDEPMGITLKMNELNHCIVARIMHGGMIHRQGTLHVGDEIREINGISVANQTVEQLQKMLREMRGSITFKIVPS
Sequence of FRMPD2_2, Q68DX3 (Q68DX3 944-1038): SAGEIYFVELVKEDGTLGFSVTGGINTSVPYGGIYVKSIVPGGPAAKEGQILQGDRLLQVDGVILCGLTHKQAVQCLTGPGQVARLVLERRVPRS
Sequence of GRID2IP_1, A4D2P6 (A4D2P6 1-87): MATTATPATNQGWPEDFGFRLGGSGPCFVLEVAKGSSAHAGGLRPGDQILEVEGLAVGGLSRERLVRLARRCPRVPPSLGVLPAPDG
Sequence of NHERF2_2, Q15599 (Q15599 142-238): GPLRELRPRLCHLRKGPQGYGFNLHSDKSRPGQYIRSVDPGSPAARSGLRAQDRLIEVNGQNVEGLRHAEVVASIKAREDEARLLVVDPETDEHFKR
Sequence of GRIP2_3, Q9C0E4 (Q9C0E4 238-339): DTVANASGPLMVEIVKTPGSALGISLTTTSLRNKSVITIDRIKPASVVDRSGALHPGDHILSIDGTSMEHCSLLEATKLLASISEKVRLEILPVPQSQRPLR
Sequence of Inadl_8, Q8NI35 (Q8NI35 1425-1530): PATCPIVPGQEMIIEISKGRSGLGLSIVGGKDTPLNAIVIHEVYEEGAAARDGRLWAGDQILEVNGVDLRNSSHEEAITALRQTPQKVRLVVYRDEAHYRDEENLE
Sequence of MAST1, Q9Y2H9 (Q9Y2H9 962-1065): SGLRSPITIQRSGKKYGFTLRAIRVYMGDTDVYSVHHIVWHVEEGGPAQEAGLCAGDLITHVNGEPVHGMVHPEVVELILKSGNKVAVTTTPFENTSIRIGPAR
Sequence of DLG4_3, P78352 (P78352 306-403): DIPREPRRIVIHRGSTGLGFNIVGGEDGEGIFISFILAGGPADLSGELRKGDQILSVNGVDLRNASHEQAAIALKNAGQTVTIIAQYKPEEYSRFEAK
Sequence of PDZRN4_1, Q6ZMN7 (Q6ZMN7 213-318): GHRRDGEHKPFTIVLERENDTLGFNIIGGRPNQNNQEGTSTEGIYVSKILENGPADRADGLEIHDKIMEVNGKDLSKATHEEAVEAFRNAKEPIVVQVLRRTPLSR
Sequence of DLG4_2, P78352 (P78352 155-259): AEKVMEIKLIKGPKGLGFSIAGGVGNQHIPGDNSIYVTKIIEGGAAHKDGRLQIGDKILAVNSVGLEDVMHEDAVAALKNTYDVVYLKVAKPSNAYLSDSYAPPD
Sequence of MAGI1_1, Q96QZ7 (Q96QZ7 1-106): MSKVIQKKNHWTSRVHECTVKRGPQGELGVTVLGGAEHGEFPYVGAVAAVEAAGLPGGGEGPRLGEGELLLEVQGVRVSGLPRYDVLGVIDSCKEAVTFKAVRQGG

| Binder | pKd (APBA1_1, Q02410) | pKd (APBA2_2, Q99767) | pKd (CASK, O14936) | pKd (DFNB31_2, Q9P202) | pKd (DFNB31_3, Q9P202) | pKd (DLG4_2, P78352) | pKd (DLG4_3, P78352) | pKd (FRMPD2_2, Q68DX3) | pKd (GOPC, Q9HD26) | pKd (GRID2IP_1, A4D2P6) | pKd (GRIP1_3, Q9Y3R0) | pKd (GRIP1_7, Q9Y3R0) | pKd (GRIP2_3, Q9C0E4) | pKd (Inadl_8, Q8NI35) | pKd (MAGI1_1, Q96QZ7) | pKd (MAGI1_2, Q96QZ7) | pKd (MAST1, Q9Y2H9) | pKd (MPDZ_12, O75970) | pKd (MPP6, Q9NZW5) | pKd (NHERF2_2, Q15599) | further results |
| --- | --- | --- | --- | --- | --- | --- | --- | --- | --- | --- | --- | --- | --- | --- | --- | --- | --- | --- | --- | --- | --- |
| EALLQMESVA [CAVIN3, Q969G5] | below the threshold | 3.61 | below the threshold | below the threshold | below the threshold | below the threshold | below the threshold | below the threshold | below the threshold | below the threshold | below the threshold | below the threshold | below the threshold | below the threshold | below the threshold | below the threshold | 3.86 | below the threshold | below the threshold | below the threshold | pKd (PDZD7_3, Q9H5P4): below the threshold; pKd (PDZRN4_1, Q6ZMN7): below the threshold; pKd (PTPN13_1, Q12923): below the threshold; pKd (SHANK1, Q9Y566): below the threshold; pKd (SYNJ2BP, P57105): 3.52; pKd (TJP1_3, Q07157): below the threshold |
| EKKTLIGIKL [GOT1L1, Q8NHS2] | below the threshold | below the threshold | below the threshold | below the threshold | 4.02 | below the threshold | below the threshold | below the threshold | below the threshold | below the threshold | below the threshold | below the threshold | below the threshold | below the threshold | below the threshold | below the threshold | 3.95 | below the threshold | below the threshold | 3.64 | pKd (PDZD7_3, Q9H5P4): below the threshold; pKd (PDZRN4_1, Q6ZMN7): below the threshold; pKd (PTPN13_1, Q12923): 3.63; pKd (SHANK1, Q9Y566): below the threshold; pKd (SYNJ2BP, P57105): below the threshold; pKd (TJP1_3, Q07157): below the threshold |
| VKPQVSESKL [ACOT8, O14734] | below the threshold | below the threshold | below the threshold | 3.62 | 3.71 | below the threshold | below the threshold | below the threshold | 3.51 | below the threshold | below the threshold | below the threshold | below the threshold | below the threshold | below the threshold | below the threshold | 4.77 | below the threshold | below the threshold | 4.56 | pKd (PDZD7_3, Q9H5P4): 4.15; pKd (PDZRN4_1, Q6ZMN7): 3.83; pKd (PTPN13_1, Q12923): below the threshold; pKd (SHANK1, Q9Y566): 4.01; pKd (SYNJ2BP, P57105): 3.75; pKd (TJP1_3, Q07157): below the threshold |
| FNSYSLTGYV [CLDN2, P57739] | below the threshold | below the threshold | below the threshold | below the threshold | below the threshold | 3.56 | below the threshold | below the threshold | 3.66 | below the threshold | below the threshold | below the threshold | below the threshold | 4.27 | below the threshold | below the threshold | 3.94 | below the threshold | below the threshold | below the threshold | pKd (PDZD7_3, Q9H5P4): below the threshold; pKd (PDZRN4_1, Q6ZMN7): 3.49; pKd (PTPN13_1, Q12923): below the threshold; pKd (SHANK1, Q9Y566): below the threshold; pKd (SYNJ2BP, P57105): 3.88; pKd (TJP1_3, Q07157): 3.63 |
| PRAEAEDSFL [PDGFRB, P09619] | 3.68 | below the threshold | below the threshold | below the threshold | below the threshold | 3.48 | below the threshold | 3.52 | below the threshold | below the threshold | below the threshold | below the threshold | below the threshold | below the threshold | 3.58 | below the threshold | 3.93 | below the threshold | 3.93 | 5.05 | pKd (PDZD7_3, Q9H5P4): 3.56; pKd (PDZRN4_1, Q6ZMN7): 3.69; pKd (PTPN13_1, Q12923): below the threshold; pKd (SHANK1, Q9Y566): 3.51; pKd (SYNJ2BP, P57105): 3.93; pKd (TJP1_3, Q07157): below the threshold |
